Assay results reported in patent US10494417B2, “Peptide inhibitors of BCR-ABL oligomerization” (University of Utah Research Foundation, priority 2014, dated 2019).
Entries after “also recorded” stand apart in the source; their conditions may differ.

How the values were obtained:
parental Ba/F3 cells = experiment: Proliferation of transfected parental Ba/F3 cells (MTS assay); type: cell-based, mouse; conditions: for proliferation of parental Ba/F3 cells: MTS assay at 72 and 96 h, CCmut3 vs EV
Experimental: (§1) Stable recombinant Ba/F3 cells transduced with wild type p210 BCR-ABL1 (Daley, G. Q., et al. (1991) Proc. Natl. Acad. Sci. U.S.A. 88, 11335-11338), the kinase domain mutants p210^T315I p210^[…], or the compound mutant p210^E255V/T315I were as previously described (La Rosee, P., et al. (2002) Cancer Res. 62, 7149-7153; O'Hare, T., et al. (2004) Blood 104, 2532-2539). These cells were cultured in RPMI with 10% FBS, 1% penicillin, streptomycin, glutamine, and 0.1% gentamycin (RPMI1640). Additionally 0.1% MycoZap™ (Lonza Bio, Basel, Switzerland) was added to prevent mycoplasma contamination. The non-transduced parental Ba/F3 cell line was grown in RPMI1640 supplemented with 20% WEHI-3B conditioned medium as a source of murine IL-3 (Dexter, T. M., et al. (1980) J. Exp. Med. 152, 1036-1047). Ba/F3 cells were transfected with plasmid DNA using the Amaxa nucleofection system (Lonza Bio), following the manufacturer's instructions. Cells were sorted on a BD FACSAria cytometer (BD Biosciences, San Jose, Calif.) for double-positive cells expressing mCherry and GFP then returned to RPMI1640 for subsequent experiments.
(§2) Cell proliferation was assessed using the CellTiter 96® AQueous One Solution Cell Proliferation Assay (MTS assay, Promega) according to manufacturer instructions. Briefly, 5,000 viable cells were added to a single well in 96-well plate in 100 μL RPMI1640. Three independent samples were seeded in duplicate for each time point. […] In some experiments, cell proliferation was assessed using a Neubauer chamber and trypan blue dye exclusion.
(§3) Stable Ba/F3 cells transduced with native (p210) BCR-ABL1, the kinase domain mutants BCR-ABL1T315I, BCR-ABL1E255V, or the compound mutant BCR-ABL1E255V/T315I were cultured. […]
(§4) Cell proliferation was assessed using a […] viability assay (MTS assay) utilizing CellTiter 96® AQueous One Solution Cell Proliferation Assay (Promega) according to manufacturer instructions. […] Cell growth was assessed by MTS assay at 72 and 96 h. […] In patient sample experiments, cell proliferation was assessed by trypan blue exclusion.

[1] = tested on: Ba/F3 cells expressing BCR-ABL1E255V; experiment: Proliferation of transfected Ba/F3 BCR-ABL1 E255V cells (MTS assay); type: cell-based, mouse; conditions: CCmut3 vs EV; for proliferation, in words: MTS assay at 72 and 96 h
Experimental: as §1, §2, §3, §4

[2] = tested on: Ba/F3 cells expressing BCR-ABL1E255V/T315I; experiment: Proliferation of transfected Ba/F3 BCR-ABL1 E255V/T315I cells (MTS assay); type: cell-based, mouse; conditions: MTS assay at 72 and 96 h, CCmut3 vs EV
Experimental: Stable recombinant Ba/F3 cells transduced with wild type p210 BCR-ABL1 (Daley, G. Q., et al. (1991) Proc. Natl. Acad. Sci. U.S.A. 88, 11335-11338), the kinase domain mutants p210^T315I p210^[…], or the compound mutant p210^E255V/T315I were as previously described (La Rosee, P., et al. (2002) Cancer Res. 62, 7149-7153; O'Hare, T., et al. (2004) Blood 104, 2532-2539). These cells were cultured in RPMI with 10% FBS, 1% penicillin, streptomycin, glutamine, and 0.1% gentamycin (RPMI1640). Additionally 0.1% MycoZap™ (Lonza Bio, Basel, Switzerland) was added to prevent mycoplasma contamination. […]
Cell proliferation was assessed using the CellTiter 96® AQueous One Solution Cell Proliferation Assay (MTS assay, Promega) according to manufacturer instructions. […] In some experiments, cell proliferation was assessed using a Neubauer chamber and trypan blue dye exclusion. […]
as §4

K562 cells = experiment: Peptide internalization Western blot, K562 cells; type: cell-based, human; conditions: 30 μM, 1.5 hours, Western blot of cell lysates
Experimental: 1.0×10^6 cells resuspended in RPMI or DMEM were seeded in a CellStar 6 well plate (Sigma Aldrich). Cells were then treated with the peptides (CPP-CCmut3, CPP-CCwt, CCmut3, and CPP-His) at a final concentration 30 uM. This is a standard concentration used in cell-penetrating peptide studies. For the kinase activity Western blot, cells were treated with peptides for 16 hours.
For the internalization experiment, cells were treated with peptides for 1.5 hours followed by a 15 minute incubation at 37° C. with heparin sulfate, 0.5 mg/mL (a gift from Kuby Balagurunathan, University of Utah). Cells were centrifuged and resuspended in 1 mL plain RPMI. Trypsin was added to a final concentration of 0.1% w/v, and the cells were incubated at 37° C. for 10 minutes. At that time 1 mL FBS was added to neutralize the trypsin. Cells were then centrifuged at 500×g for 10 minutes, followed by 3 rounds of washes with 5 mL cold PBS.
For both kinase activity and internalization Western blots, cells were resuspended in 100 μL of RIPA lysis buffer (Cell Signaling, Danvers, Mass., USA) with 100× protease/phosphatase inhibitor added (Cell Signaling) and transferred into a pre-chilled microcentrifuge tube. Cells were then sonicated, centrifuged at 12,000×g for 15 minutes, and then the supernatant was transferred into a fresh, pre-chilled microcentrifuge tube. […]

B1: CCmut3: modified Bcr-Abl coiled-coil domain (residues 1-72) with mutations C38A, K39E, S41R, L45D, E48R, Q60E (protein)
chain: MVDPVGFAEAWKAQFPDSEPPRMELRSVGDIEQELERAEARIRRDEQRVNQERFRMIYLETLLAKEKKSYDR
With B1 the “proliferation of parental Ba/F3 cells” value (parental Ba/F3 cells) was “not affected; also recorded: No difference”, the “proliferation of parental Ba/F3 cells” value (parental Ba/F3 cells; listed as CC^mut3) was “not affected; also recorded: No difference” and the “toxicity in BCR-ABL1-negative cells” value (parental Ba/F3 cells; parental Ba/F3 cells, FIGS. 38a, c, e (proliferation, apoptosis, colony formation)) was “no measurable toxicity”. The reduction of proliferation ([1]; 96 h, MTS assay) was “approximately 3 fold”, the “proliferation, in words” value [1] was “significant reduction of proliferative capacity; also recorded: lesser, yet significant difference was noted at the 72 h time point” and the “proliferation, in words” value ([1]; listed as CC^mut3) was “significant reduction”. For the same molecule, the “proliferation, in words” value [2] was “small yet significant growth reduction at 96 h but not 72 h; also recorded: significantly reduced proliferation of compound mutant cells at 96 h”, the “proliferation, in words” value ([2]; listed as CC^mut3) was “significant growth reduction at 96 h; also recorded: smaller yet significant reduction in proliferation at 96 h” and the internalization into cells (K562 cells) was “unable to enter the cells; also recorded: not internalized; also recorded: did not enter”.
